Like-named read-outs stand apart in the source and are kept apart here.
B1: VHH3-linker-mono-Fc protein (Fc fusion)
chain: QLQLVESGGGLVQPGGSLRLSCAASGSIFSINVMGWYRQAPGKQRELVARINGGGITHYAESVKGRFTISRDNAKNTVYLQMNSLKPEDTAAYYCKADVFGSSGYVETYWGQGTQVTVSSEPKTPKPQPQPQLQPQPNPTTESKSPKSPAPELLGGPSVFLFPPKPKDTLMISRTPEVTCVVVDVSHEDPEVKFNWYVDGVEVHNAKTKPREEQYNSTYRVVSVLTVLHQDWLNGKEYKCKVSNKALPAPIEKTISKAKGQPREPQVYTKPPSREEMTKNQVSLSCLVKGFYPSDIAVEWESNGQPENNYKTTVPVLDSDGSFRLASYLTVDKSRWQQGNVFSCSVMHEALHNHYTQKSLSLSPGK
notes: made in CHO cells; also called VHH3-mono-Fc; hpIgR_021
B2: VHH2-linker-mono-Fc protein (Fc fusion)
chain: EVQVVESGGGLVQAGGSLKLACAAPGLTFSSYRMGWFRQAPGQEREFVAAIDWNGRGTYYRYYADSVKGRSTISRDNAKNTVYLQMNSLKPEDTAVYYCAATTVLTDPRVLNEYATWGQGTQVTVSSEPKTPKPQPQPQLQPQPNPTTESKSPKSPAPELLGGPSVFLFPPKPKDTLMISRTPEVTCVVVDVSHEDPEVKFNWYVDGVEVHNAKTKPREEQYNSTYRVVSVLTVLHQDWLNGKEYKCKVSNKALPAPIEKTISKAKGQPREPQVYTKPPSREEMTKNQVSLSCLVKGFYPSDIAVEWESNGQPENNYKTTVPVLDSDGSFRLASYLTVDKSRWQQGNVFSCSVMHEALHNHYTQKSLSLSPGK
notes: also called VHH2-mono-Fc; mpIgR_338

Experiments:
[1] = target: T1, hpIgR domain-1 with teleost fish CDR2 (hD1 tCDR2) (human, UniProt P01833 19-127, limits assumed); test: BLI, HIS-tagged construct on anti-HIS biosensors
T1 construct: CDR-swapped hpIgR domain-1 mutant, HIS-tagged, made in HEK293 cells; not shown: HIS tag
T1 chain: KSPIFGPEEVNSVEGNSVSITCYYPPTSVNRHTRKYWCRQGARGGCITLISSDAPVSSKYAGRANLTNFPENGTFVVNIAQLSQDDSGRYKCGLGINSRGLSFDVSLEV

[2] = target: T2, human pIgR, full-length, on cells (human, UniProt P01833 19-764); test: flow cytometry on MDCK-hpIgR cells; summary table, repeats Table 1
T2 construct: whole, on cells; Used for the flow cytometry EC50 values (MDCK-hpIgR) and for the transcytosis read-outs; also called hpIgR; cell-surface hpIgR
T2 sequence (P01833 19-764): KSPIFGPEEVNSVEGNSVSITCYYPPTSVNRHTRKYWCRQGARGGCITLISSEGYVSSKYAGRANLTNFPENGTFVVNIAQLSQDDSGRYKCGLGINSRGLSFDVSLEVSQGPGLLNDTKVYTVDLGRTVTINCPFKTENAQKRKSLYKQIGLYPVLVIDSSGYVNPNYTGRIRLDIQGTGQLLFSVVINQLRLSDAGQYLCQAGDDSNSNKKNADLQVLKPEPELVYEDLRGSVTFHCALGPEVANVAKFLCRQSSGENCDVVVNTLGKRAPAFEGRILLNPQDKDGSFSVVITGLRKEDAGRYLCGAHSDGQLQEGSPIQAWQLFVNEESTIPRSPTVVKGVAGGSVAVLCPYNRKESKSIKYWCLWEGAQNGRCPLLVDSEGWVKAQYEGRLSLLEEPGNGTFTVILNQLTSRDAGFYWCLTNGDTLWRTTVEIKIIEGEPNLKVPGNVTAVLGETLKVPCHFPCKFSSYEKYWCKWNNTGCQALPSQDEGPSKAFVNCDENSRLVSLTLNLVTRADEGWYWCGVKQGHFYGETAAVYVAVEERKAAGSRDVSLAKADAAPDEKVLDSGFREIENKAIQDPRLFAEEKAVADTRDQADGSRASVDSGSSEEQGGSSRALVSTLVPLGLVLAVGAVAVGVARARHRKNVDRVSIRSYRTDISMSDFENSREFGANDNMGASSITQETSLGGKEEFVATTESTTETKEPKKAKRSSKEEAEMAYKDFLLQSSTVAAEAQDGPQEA

[3] = target: T3, human pIgR extracellular domain 1-domain 2 (D1-D2) (human, UniProt P01833 19-240); test: ratio of the second to the first EC50 column
T3 construct: HIS-tagged construct made in HEK293 cells

[4] = target: T4, human pIgR extracellular domain 1 (D1) (human, UniProt P01833 19-127); test: ratio of the second to the first EC50 column
T4 construct: HIS-tagged construct made in HEK293 cells; also called hpIgR domain-1

[5] = target: T5, human pIgR extracellular domain (ECD) (human, UniProt P01833 19-638); test: ECL (MSD), anti-VHH detection against anti-Fc detection
T5 construct: also called hpIgR ECD
Target sequence in this assay (P01833 other isoform, or with tags, fused parts or gaps): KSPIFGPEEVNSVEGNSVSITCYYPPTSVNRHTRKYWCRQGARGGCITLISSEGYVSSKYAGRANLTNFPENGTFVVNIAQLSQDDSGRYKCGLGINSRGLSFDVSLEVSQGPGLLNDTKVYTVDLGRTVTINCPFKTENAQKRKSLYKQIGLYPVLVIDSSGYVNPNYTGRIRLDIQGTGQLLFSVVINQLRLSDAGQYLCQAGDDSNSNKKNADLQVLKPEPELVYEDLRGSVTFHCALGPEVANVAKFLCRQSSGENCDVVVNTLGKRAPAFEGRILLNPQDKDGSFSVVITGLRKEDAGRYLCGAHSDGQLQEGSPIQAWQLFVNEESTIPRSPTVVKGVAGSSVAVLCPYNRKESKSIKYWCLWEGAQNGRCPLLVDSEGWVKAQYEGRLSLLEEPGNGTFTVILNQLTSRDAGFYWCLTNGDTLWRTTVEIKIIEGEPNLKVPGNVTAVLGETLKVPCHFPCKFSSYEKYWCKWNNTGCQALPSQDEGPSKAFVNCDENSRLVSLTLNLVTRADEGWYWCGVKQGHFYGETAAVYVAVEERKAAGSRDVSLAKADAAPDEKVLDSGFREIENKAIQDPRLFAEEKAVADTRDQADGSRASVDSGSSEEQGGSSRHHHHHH

[6] = target: T2, human pIgR, full-length, on cells; test: cell-based or functional assay
[7] = target: T2, human pIgR, full-length, on cells; test: flow cytometry on MDCK-hpIgR cells; summary table, repeats Table 1; remark: listed apart in the source
Experimental: Flow Cytometry was performed as follows. To test whether VHH-mono-Fc molecules recognize cell-surface hpIgR, Madin-Darby canine kidney (MDCK) cells engineered to express full-length hpIgR were used. Cells were cultured in Dulbecco's modified Eagle's medium containing 10% fetal calf serum at 37° C. with 5% CO₂. Cells were split into equal fractions (≈70,000 cells) and incubated with increasing concentrations of VHH-mono-Fc molecules for 30 min at 4 C. […] Cells were washed twice with cold staining buffer, resuspended in running buffer and analyzed with an iQue Screener (IntelliCyt Corporation). Binding was assessed by RL1 (A647) Geomeans from the live cell population and EC50 was calculated by fitting log VHH concentration versus MFI in Prism (Graphpad).

[8] = target: T5, human pIgR extracellular domain (ECD); test: BLI (Octet), VHH-mono-Fc and hpIgR ectodomain
Target sequence in this assay (P01833 other isoform, or with tags, fused parts or gaps): as above

[9] = target: T5, human pIgR extracellular domain (ECD); test: ECL (MSD), hpIgR-ECD coated, anti-Fc detection
Experimental: To check whether VHH recognizes a buried epitope on pIgR, EC₅₀ values were measured for VHH-mono-Fc molecules binding to hpIgR-ECD protein by electrochemiluminescence using two different detection antibodies, an anti-Fc antibody and an anti-VHH antibody. pIgR ECD (10 μg/ml in PBS) was coated on high-bind MSD plates for 2 hours at RT with 1000 rpm, incubated with blocking buffer for 1 hour at RT, incubated with VHH-mono-Fc molecules (increasing concentrations in PBS) for 2 hours at RT with 1000 rpm, washed 3× with PBT, incubated with ruthenylated secondary antibody (2 μg/ml in PBS) for 1 hour at RT with 1000 rpm, washed 3× with PBT and read plates in 40 ul reading buffer using the MSD imager. EC50 was calculated by fitting log VHH concentration versus log ECLU in Prism (Graphpad). The increase in EC₅₀ (>50-fold) due to anti-VHH detection was used as a measure to determine whether VHH recognized buried epitope on pIgR.

hpIgR_D3 = target: T6, hpIgR_D3; test: ECL (MSD) heat map, HIS-tagged construct captured via anti-HIS, anti-human-Fc detection;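 further: VHH-mono-Fc molecules tested at 100 µg/ml for 2 h on captured His-tagged pIgR constructs (10 µg/ml), read-out as electrochemiluminescence units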
T6 construct: HIS-tagged construct from HEK293 cells; also called human pIgR extracellular domain 3 (D3); hD3
Experimental: (§1) A meso-scale discovery (MSD) platform was used for conducting epitope mapping and epitope burial studies. To test the binding of VHH-mono-Fc molecules to purified pIgR protein constructs, Streptavidin MSD plates were coated with a biotinylated anti-HIS antibody (2 μg/ml in PBS) for 1 hour at RT with 1000 rpm, washed 3× with PBT (PBS+0.1% Tween-20), incubated with blocking buffer for 1 hour at RT, incubated with His-tagged pIgR proteins (10 μg/ml in PBS) for 2 hours at RT with 1000 rpm, washed 3× with PBT, incubated with VHH-mono-Fc molecules (100 μg/ml in PBS) for 2 hours at RT with 1000 rpm, washed 3× with PBT, incubated with ruthenylated-anti-human-Fc antibody (2 μg/ml in PBS) for 1 hour at RT with 1000 rpm, washed 3× with PBT and read plates in 40 ul reading buffer using the MSD imager. ECLU values were plotted as a heatmap.
(§2) Binding of VHH-mFc molecules were tested to immobilized pIgR constructs by the electrochemiluminescence method.
T6 HIS-tagged domain construct: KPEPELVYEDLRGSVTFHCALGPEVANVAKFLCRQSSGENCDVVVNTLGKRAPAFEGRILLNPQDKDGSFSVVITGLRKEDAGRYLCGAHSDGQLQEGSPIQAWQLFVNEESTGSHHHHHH

[10] = target: T7, human pIgR extracellular domain 5 (D5) (human, UniProt P01833 460-565); test: as above
T7 construct: HIS-tagged construct made in HEK293 cells; also called hpIgR domain 5
T7 sequence (P01833 other isoform, or with tags, fused parts or gaps limits assumed): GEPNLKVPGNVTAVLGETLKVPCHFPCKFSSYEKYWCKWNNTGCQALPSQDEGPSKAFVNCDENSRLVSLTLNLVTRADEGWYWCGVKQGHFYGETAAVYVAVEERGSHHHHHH
Experimental: as §1, §2

[11] = target: T8, human pIgR extracellular domain 2 (D2) (human, UniProt P01833 128-242); test: as above
T8 construct: HIS-tagged construct made in HEK293 cells; also called hpIgR domain 2
Experimental: as §1, §2

[12] = target: T3, human pIgR extracellular domain …; test: ECL (MSD); headed 'Anti-Fc' on the sheet, but its ECD values are the anti-VHH values of Table 2, so anti-VHH detection
[13] = target: T4, human pIgR extracellular domain 1 (D1); test: as above
Target sequence in this assay (P01833 other isoform, or with tags, fused parts or gaps limits assumed): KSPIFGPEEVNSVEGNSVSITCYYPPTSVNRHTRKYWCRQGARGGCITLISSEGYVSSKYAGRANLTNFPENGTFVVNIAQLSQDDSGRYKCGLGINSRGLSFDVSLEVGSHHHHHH

[14] = target: T5, human pIgR extracellular domain (ECD); test: BLI; summary table, repeats Table 1
Target sequence in this assay (P01833 other isoform, or with tags, fused parts or gaps): as the sequence (P01833 other isoform, or with tags, fused parts or gaps) above

[15] = target: T3, human pIgR extracellular domain …; test: ECL (MSD), Log ECLU against Log [VHH] nM, anti-Fc detection (first EC50 column)
[16] = target: T4, human pIgR extracellular domain 1 (D1); test: as above
[17] = target: T3, human pIgR extracellular domain …; test: BLI, HIS-tagged pIgR construct on anti-HIS biosensors
Experimental: (§3) Bio-layer Interferometry was performed as follows. […] Data were collected with Octet Data Acquisition version 7.1.0.87 (ForteBio) and analyzed using Octet Data Analysis version 7.1 (ForteBio). To measure binding kinetics between VHH-mono-Fc molecules and HIS-tagged pIgR proteins, VHH-mono-Fc was immobilized on amine-reactive generation-2 (ARG2) biosensors according to manufacturer's instructions and increasing concentrations of pIgR proteins were exposed to sensor-immobilized VHH. In some cases, HIS-tagged pIgR proteins were immobilized on anti-HIS biosensors and exposed to increasing concentrations of VHH-mono-Fc molecules. Association and dissociation rates were measured by the shift in wavelength (nm). […] All reactions were performed at 25° C. in PBS.
(§4) (Full-length hpIgR ECD was purchased from R&D Systems.) The five constructs (D1-D2, D1, D1_tCDR1, D1_tCDR2, D1_tCDR3) were expressed and purified from HEK293 cells using immobilized metal ion affinity chromatography. Three hpIgR domain-1 CDR mutants (D1_tCDR1, D1_tCDR2, D1_tCDR3) contain respective teleost fish CDR on a hpIgR domain-1 framework. His-tagged pIgR constructs were immobilized on anti-HIS biosensors and binding of VHH-mono-Fc molecules to pIgR constructs were measured by bio-layer interferometry.

[18] = target: T9, hpIgR domain-1 with teleost fish CDR1 (hD1 tCDR1) (human, UniProt P01833 19-127, limits assumed); test: as above
T9 construct: CDR-swapped hpIgR domain-1 mutant, HIS-tagged, made in HEK293 cells; not shown: HIS tag

[19] = target: T10, hpIgR domain-1 with teleost fish CDR3 (hD1 tCDR3) (human, UniProt P01833 19-127, limits assumed); test: as above
T10 construct: CDR-swapped hpIgR domain-1 mutant, HIS-tagged, made in HEK293 cells; not shown: HIS tag

[20] = target: T4, human pIgR extracellular domain 1 (D1); test: as above
Experimental: as §3, §4

Binder	binding result [1]	EC50 [2] [nM]	Fold change [3]	Fold change [4]	Fold change in EC50 [5] [fold]	For. Trans. (Fold Incr.) [6] [fold]	Rev. Trans (Fold Incr.) [6] [fold]	EC50 [7] [nM]	Kd [8] [nM]	EC50 [9] [nM]	binding result (hpIgR_D3)	binding result [10]	binding result [11]	EC50 [12] [nM]	EC50 [13] [nM]	Kd [14] [nM]	EC50 [15] [nM]	EC50 [16] [nM]	Kd [17] [nM]	Kd [18] [nM]	also measured
B1	no binding	6.4	11.9	5.7	54	1	1	6.4	5	0.5	no binding (tested: 100 ug/ml (single concentration))	no binding (tested: 100 ug/ml (single concentration))	no binding (tested: 100 ug/ml (single concentration))	13.7	17.6	5	1.2	3.1	13.3	77	Kd [19]: 7.5 nM; Kd [20]: 7.7 nM
B2	no binding	6.3	1.2	1.2	1	21	5.7	6.3	21	4.2	no binding (tested: 100 ug/ml (single concentration))	no binding (tested: 100 ug/ml (single concentration))	no binding (tested: 100 ug/ml (single concentration))	1.8	8.1	21	1.5	6.8	23	21.3	Kd [19]: 14.9 nM; Kd [20]: 15.5 nM

From patent US20220324970A1 (Janssen / Centocor, published 2022)
